Values belong to the binder of their own block, whether it stands above or below them.
Target: T1, LONM (human mitochondrial matrix AAA+ protease) (human (endogenous in HeLa)) (UniProt P36776)
T1 sequence: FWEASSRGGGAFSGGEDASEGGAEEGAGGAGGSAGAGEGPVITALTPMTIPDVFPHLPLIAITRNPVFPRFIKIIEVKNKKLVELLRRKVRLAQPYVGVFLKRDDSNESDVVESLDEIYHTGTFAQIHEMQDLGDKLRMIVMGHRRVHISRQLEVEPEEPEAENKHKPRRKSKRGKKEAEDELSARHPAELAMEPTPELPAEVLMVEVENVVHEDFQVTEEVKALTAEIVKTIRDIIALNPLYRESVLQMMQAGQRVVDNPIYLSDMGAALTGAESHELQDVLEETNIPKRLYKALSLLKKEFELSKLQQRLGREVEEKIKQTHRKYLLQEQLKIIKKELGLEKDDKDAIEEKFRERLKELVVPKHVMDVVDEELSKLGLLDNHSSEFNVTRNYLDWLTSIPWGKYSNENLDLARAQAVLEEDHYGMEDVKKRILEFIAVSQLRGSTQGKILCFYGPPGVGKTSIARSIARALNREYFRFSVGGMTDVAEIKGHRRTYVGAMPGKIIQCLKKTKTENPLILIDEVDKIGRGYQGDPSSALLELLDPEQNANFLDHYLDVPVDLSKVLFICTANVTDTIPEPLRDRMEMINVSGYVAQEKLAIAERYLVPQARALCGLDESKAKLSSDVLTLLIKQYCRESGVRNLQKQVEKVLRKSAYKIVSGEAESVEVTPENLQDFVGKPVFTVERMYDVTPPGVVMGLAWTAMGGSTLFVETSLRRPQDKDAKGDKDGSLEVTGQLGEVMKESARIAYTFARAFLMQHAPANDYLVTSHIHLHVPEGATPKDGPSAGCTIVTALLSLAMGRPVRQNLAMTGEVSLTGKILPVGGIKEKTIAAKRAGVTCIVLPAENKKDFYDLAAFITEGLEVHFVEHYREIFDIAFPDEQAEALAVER

half-life of guanidine-unfolded MDH (MDHU) in in vitro degradation by purified recombinant LONM with ATP: 4 min
B1: Pig heart mitochondrial malate dehydrogenase (MDH) (natural protein)
chain: AKVAVLGASGGIGQPLSLLLKNSPLVSRLTLYDIAHTPGVAADLSHIETRATVKGYLGPEQLPDCLKGCDVVVIPAGVPRKPGMTRDDLFNTNATIVATLTAACAQHCPDAMICIISNPVNSTIPITAEVFKKHGVYNPNKIFGVTTLDIVRANAFVAELKGLDPARVSVPVIGGHAGKTIIPLISQCTPKVDFPQDQLSTLTGRIQEAGTEVVKAKAGAGSATLSMAYAGARFVFSLVDAMNGKEGVVECSFVKSQETDCPYFSTPLLLGKKGIEKNLGIGKISPFEEKMIAEAIPELKASIKKGEEFVKNMK

half-life of guanidine-unfolded OTC (OTCU) in in vitro degradation by purified recombinant LONM with ATP: 15 min
B2: mature recombinant OTC (rat ornithine transcarbamylase) (natural protein)
chain: SQVQLKGRDLLTLKNFTGEEIQYMLWLSADLKFRIKQKGEYLPLLQGKSLGMIFEKRSTRTRLSTETGFALLGGHPSFLTTQDIHLGVNESLTDTARVLSSMTDAVLARVYKQSDLDILAKEATIPIVNGLSDLYHPIQILADYLTLQEHYGSLKGLTLSWIGDGNNILHSIMMSAAKFGMHLQAATPKGYEPDPNIVKLAEQYAKENGTRLSMTNDPLEAARGGNVLITDTWISMGQEDEKKKRLQAFQGYQVTMKTAKVAASDWTFLHCLPRKPEEVDDEVFYSPRSLVFPEAENRKWTIMAVMVSLLTDYSPVLQKPKF

Source: paper PMC4667172
